The results in this text go back to patent US20060026702A1, “Phosphoinositide 3-kinase mediated inhibition of GPCRs” (DUKE UNIVERSITY, priority 2002, published 2006).

For data set [1], the system named is β-arrestin2-GFP. Put plainly: β-arrestin2-GFP recruitment to the membrane by confocal microscopy. Conditions: isoproterenol; co-expressed mutant protein. The format is cell-based. The protocol:
Confocal Microscopy—Confocal microscopy was performed as previously described. […] Cells were split into 35 mm^2 dishes with glass bottoms for observation using a Zeiss LSM-510 confocal microscope. […] For analyses of the HEAT domain, HEK 293 cells were transfected with the plasmids containing cDNAs encoding either the β2AR-YFP (2 μg) or β2AR-YFP (2 μg) and HEAT domain (4 μg). Cells were plated onto glass bottom dishes for observation in the confocal microscope. […] Cells were permeablized with 0.1% Triton X-100 in phosphate-buffered saline for 20 min, incubated in 1% BSA in phosphate-buffered saline for 1 hr. Cells were washed with 1× phosphate-buffered saline and incubated with anti-HA or anti-FLAG monoclonal antibody (1:250) with 1% BSA in 1× phosphate-buffered saline for 1 hr. Cells were washed and incubated with goat anti-mouse IgG conjugated with Texas Red (1:500) (Molecular Probes) for 1 hr. Samples were visualized using single sequential line excitation filters at 488 and 568 nm and emission filter sets at 505-550 nm for GFP detection and 585 for Texas Red detection.
To exclude these possibilities cells were co-transfected with plasmids containing FLAG β2AR, β-arrestin2-GFP and either PI3Kγ or ΔPI3Kγ cDNAs, and were monitored for the recruitment of β-arrestin2-GFP using confocal microscopy. […] Marked redistribution of β-arrestin2-GFP to the membrane occurred within 2.5 minutes. […]

The test system of data set [2] is PI3K. Briefly: βAR associated and endogenous PI3K activity (lipid kinase assay) in HEK-293 cells. The conditions noted are these: HEAT (4 μg cDNA) co-transfected; 10 μM isoproterenol.
Procedure: Lipid Kinase Assays—Cells were lysed in lysis buffer and 2 mg cytosolic extract was used for immunoprecipitation with either the C5/1 monoclonal antibody directed against βARK1, the anti-FLAG M2 monoclonal antibody (Sigma) or antibodies to p110γ, or p110β (Santa Cruz Biotechnology) and protein G-agarose. Sedimented beads were then washed once with 1 ml of lysis buffer, thrice with 1 ml of phosphate-buffered saline (1× phosphate-buffered saline, 1% NP-40 and 100 μM sodium orthovanadate), thrice with 1 ml of Tris/LiCl (100 mM Tris-HCl (pH 7.4), 5 mM LiCl and 100 μM sodium orthovanadate) and twice with TNE (10 mM Tris Cl (pH 7.4), 150 mM NaCl, 5 mM EDTA and 100 μM sodium orthovanadate). […] Autoradiography of dried plates was used to detect signals, and PIP was quantified by phosphorimaging. […] Values are expressed as fold increase/decrease relative to wild-type/control.
They used HEK-293 cells transfected with either FLAG epitope tagged β1AR or β2AR plasmids and monitored the association of PI3K to the receptor after agonist stimulation. […] The FLAG epitope was immunoprecipitated from 500 ug of protein from the cytosolic extracts and PI3K activity measured.
HEK-293 cells were transfected with FLAG β1AR (upper panel) and FLAG β2AR (lower panel). […] Cell extracts were used to immunoprecipitate β1AR and β2AR using the anti-FLAG antibody and PI3K activity was measured in the immunoprecipitates.
Data set [3] deals with phospho-PKB. Put plainly: PKB activation (phospho-PKB immunoblot) in HEK 293 cells. The format is cell-based. The conditions noted are these: IGF, carbachol or isoproterenol stimulation; HEAT transfected. A general note: In western blotting, separated proteins are transferred to a membrane and probed.
Data set [4] relates to βARK1. Briefly: βARK1 recruitment to the membrane (immunoblot of membrane fraction). It is filed as cell-based. The conditions noted are these: 10 μM isoproterenol; HEAT 4 μg. The protocol: Cytosolic and Membrane Fractionation—Cell monolayers were scraped in 1 ml of buffer containing 25 mM Tris-HCl (pH 7.5), 5 mM EDTA, 5 mM EGTA, 1 mM phenylmethylsulfonyl fluoride, 2 μg/ml each of leupeptin and aprotinin and disrupted further by using Dounce homogenizer. Intact cells and nuclei were removed by-centrifugation at 1,000×g for 5 min. The collected supernatant was further subject to a centrifugation at 38,000×g for 25 min. The pellet was resuspended in lysis buffer (1% Nonidet P-40, 10% glycerol, 137 mM NaCl, 20 mM Tris-Cl (ph 7.4), 1 mM phenylmethylsulfonyl fluoride, 20 mM NaF, 1 mM sodium pyrophosphate, 1 mM sodium orthovanadate and 2 μg/ml each of aprotinin and leupeptin) and used as membrane fraction and the supernatant was diluted in lysis buffer and used as the cytosolic fraction. Heart samples also underwent through similar procedures to obtain membrane and cytosolic fractions. Purity of the membrane fraction preparation was confirmed by measuring enzyme activity of the membrane marker enzyme K^+-stimulated p-nitrophenylphosphatase (membrane fraction: 9.4 μmol/mg protein per min, cytosol: 2.6 μmol/mg of protein/min). […]
Cytosolic and membrane fractions were prepared and analyzed for βARK1 associated PI3K activity. […]

B1: HEAT: 197 amino acid HEAT domain of PI3Kγ, FLAG epitope-tagged (SEQ ID NO: 2), overexpressed in cells (protein, listed as Homo sapiens)
chain: MDYKDDDDKHPIALPKHQPTPDDRVRAEMPNQLRKQLEAIIATDTAEDKELLWHFRYESLKHPKAYPKLFSSVKWGQQEIVAKTYQLLARREVWDQSALDVGLTMQLLDCNFSDENVRAIAVQKLESLEDDDVLHYLLQLVQAVKFEPYHDSALARFLLKRGLRNKRIGHFLFWFLRSEIAQSRHYQQRFAVILEAYLRGCGTA
modifications: FLAG tag
Take B1: in data set [1], the “recruitment of β-arrestin2-GFP to the receptor/membrane after agonist” value is recorded as “did not affect”. For the same molecule, the “FLAG-β2AR associated PI3K activity” value in data set [2] was “marked decrease”. Further, in data set [3], the “cellular signaling downstream of PI3K (PKB activation)” value is “no effect”. For the same molecule, the “membrane recruitment of βARK1 following isoproterenol” value in data set [4] was “no effect”.
